For 4 molecules, OD490 results are on record in US20190248900A1 (Y BIOLOGICS, published 2019).

Holding throughout (assay): scFv-phage ELISA
The target in test [1] is T1, M2.
T1 construct: also called PD1 mutant M2

In test [2] the target is T2, ITGA6-Fc.
T2 construct: Fc fusion
T2 sequence (P23229 whole entry, species assumed, looked up): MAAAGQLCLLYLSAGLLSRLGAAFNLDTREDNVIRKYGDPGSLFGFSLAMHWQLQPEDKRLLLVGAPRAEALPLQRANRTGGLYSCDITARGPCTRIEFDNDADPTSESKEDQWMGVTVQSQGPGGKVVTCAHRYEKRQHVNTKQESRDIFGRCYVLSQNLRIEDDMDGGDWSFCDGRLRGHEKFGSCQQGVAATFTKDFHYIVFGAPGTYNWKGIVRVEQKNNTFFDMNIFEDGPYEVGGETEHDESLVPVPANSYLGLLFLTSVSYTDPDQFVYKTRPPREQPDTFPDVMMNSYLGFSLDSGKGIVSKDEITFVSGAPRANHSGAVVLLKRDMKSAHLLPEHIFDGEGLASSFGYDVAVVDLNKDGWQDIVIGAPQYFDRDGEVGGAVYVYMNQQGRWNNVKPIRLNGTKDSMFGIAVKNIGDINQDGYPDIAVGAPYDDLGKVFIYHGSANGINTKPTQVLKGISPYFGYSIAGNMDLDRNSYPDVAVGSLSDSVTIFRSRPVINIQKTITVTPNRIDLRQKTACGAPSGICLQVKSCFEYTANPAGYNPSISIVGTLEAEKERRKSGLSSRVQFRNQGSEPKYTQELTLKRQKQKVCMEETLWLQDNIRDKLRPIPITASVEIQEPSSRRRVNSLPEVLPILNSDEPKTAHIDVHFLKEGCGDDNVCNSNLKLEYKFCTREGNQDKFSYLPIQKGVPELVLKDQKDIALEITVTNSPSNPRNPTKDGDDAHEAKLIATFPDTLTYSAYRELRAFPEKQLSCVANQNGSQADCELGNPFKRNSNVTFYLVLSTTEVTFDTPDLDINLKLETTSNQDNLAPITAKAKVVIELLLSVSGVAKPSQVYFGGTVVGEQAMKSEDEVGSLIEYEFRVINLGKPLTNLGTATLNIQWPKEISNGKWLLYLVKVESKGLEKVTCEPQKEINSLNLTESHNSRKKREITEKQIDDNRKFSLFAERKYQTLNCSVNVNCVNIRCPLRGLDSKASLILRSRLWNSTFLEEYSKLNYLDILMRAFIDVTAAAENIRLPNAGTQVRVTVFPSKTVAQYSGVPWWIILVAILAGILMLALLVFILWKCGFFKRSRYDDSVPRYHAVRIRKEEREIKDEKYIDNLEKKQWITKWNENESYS

For test [3], the target named is T3, M5-2.
T3 construct: also called PD1 mutant M5-2

Test [4] concerns the target T4, M2-2.
T4 construct: also called PD1 mutant M2-2

The target in test [5] is T5, M9.
T5 construct: also called PD1 mutant M9

Test [6] has as its target T6, M4.
T6 construct: also called PD1 mutant M4

Test [7] has as its target T7, M1.
T7 construct: also called PD1 mutant M1

For test [8], the target named is T8, M7-2.
T8 construct: also called PD1 mutant M7-2

The target in test [9] is T9, M11.
T9 construct: also called PD1 mutant M11

Test [10] deals with T10, antigen PD1 (coated, construct not stated) (UniProt Q15116 25-170, limits assumed).
T10 construct: also called PD1 antigen; PDCD1
T10 sequence (Q15116 25-170 limits assumed): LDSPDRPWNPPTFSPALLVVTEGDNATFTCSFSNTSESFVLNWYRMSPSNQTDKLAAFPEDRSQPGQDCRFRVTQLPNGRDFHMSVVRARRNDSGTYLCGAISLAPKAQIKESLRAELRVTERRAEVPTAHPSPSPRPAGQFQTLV

The target of test [11] is T11, M6.
T11 construct: also called PD1 mutant M6

Test [12] addresses T12, M7.
T12 construct: also called PD1 mutant M7

Test [13] has as its target T13, M1-1.
T13 construct: also called PD1 mutant M1-1

Test [14] has as its target T14, M3.
T14 construct: also called PD1 mutant M3

The target in test [15] is T15, M10.
T15 construct: also called PD1 mutant M10

The target of test [16] is T16, M5.
T16 construct: also called PD1 mutant M5

Test [17] has as its target T17, M13.
T17 construct: also called PD1 mutant M13

In test [18] the target is T18, M8.
T18 construct: also called PD1 mutant M8

Test [19] concerns the target T19, M7-1.
T19 construct: also called PD1 mutant M7-1

Test [20] deals with T20, M5-1.
T20 construct: also called PD1 mutant M5-1

Test [21] addresses T21, M2-1.
T21 construct: also called PD1 mutant M2-1

For test [22], the target named is T22, M14.
T22 construct: also called PD1 mutant M14

The target of test [23] is T23, M1-2.
T23 construct: also called PD1 mutant M1-2

Test [24] deals with T24, M12.
T24 construct: also called PD1 mutant M12

B1: PD1-45F4 (antibody, V domains shown)
VH: QMQLVESGGGLVQPGRSLRLSCAASGFTFDDYAMHWVRQAPGQGLEWVSGISWNSNNIKYADSVKGRFTISRDNSKNSLYLQMNSLRAEDTAVYYCARGALTPLDVWGQGTPVTVSS
VL: SYELTQAPSLSVSPGQTANIICSGDNLRTKYVSWYQQKPGQSPLLVIYQDTRRPSGIPARFSGSNSGNTATLTISGTQTRDESTYYCMTWDVDTTSMIFGGGTKLTVL
notes: scFv-phage in the screening ELISA; later whole IgG
B1: the OD490 is 2.9 in [1]; 0.1 in [2]; 3.1 in test [3]; 2.5 in test [4]; 3.3 in test [5]; 2.7 in [6]. Moreover, the OD490 in [7] is 2.6; in test [8] it was 3.4; in [9] it was 0.3; in [10], 3.8; in [11], 3.7; in test [12] it was 3.5. Besides, the OD490 in test [13] was 2.5; in [14], 3.7; in [15], 3.3; in test [16], 0.1; in test [17] it was 3.5; in [18] it was 3.6. For the same molecule, the OD490 was determined as 3.5 in test [19]; 0.1 in test [20]; 3 in [21]; 1.8 in test [22]; 3.6 in test [23]; 3.7 in [24].

B2: PD1-49B9 (antibody, V domains shown)
VH: QMQLVESGGGLVQPGRSLRLSCAASGFTFEDYAMHWVRQPPGKGLEWVSSISWNSHNIAYADSVKGRFTISRDNSKNSLYLQMNSLRAEDTAVYYCSTSGLGVHAWGQGTMVTVSS
VL: QSALTQPPSASGSPGQSVTISCTGTSSDVGGYNYVSWYQQHPGKAPKLMIYEVSKRPSGVPDRFSGSKSGNTASLTVSGLQPEDEADYYCSSFARNSNYVFGTGTKVTVL
notes: as for B1
Take B2: the OD490 in test [1] came to 3.9; in test [2] it was 0.3; in test [3] it was 4; in test [4], 3.9; in [5], 3.9; in [6], 3.8. The OD490 in test [7] came to 3.9; in test [8], 3.9; in test [9], 1.4; in test [10] it was 3.9; in test [11], 3.9; in [12] it was 3.9. In addition, the OD490 in test [13] came to 3.8; in test [14], 3.9; in test [15], 3.9; in test [16] it was 3.9; in test [17] it was 3.9; in test [18], 4. For the same molecule, the OD490 in test [19] is 3.9; in test [20], 3.9; in test [21], 3.8; in test [22], 3.9; in test [23], 3.9; in test [24] it was 3.9.

B3: PD1-45F1 (antibody, V domains shown)
VH: QVQLVQSGAEVKKPGASVKLSCKASGYTFNSYYVHWVRQAPGQGLEWMGIINPSDGSATYAQKFQGRVTMTSDTSTSSVYMELSSLRSEDTAVYYCARDGNYYDSRGYYYDTFDMWGQGTLITVSS
VL: SYELTQDPAVSVALGQTVRITCQGDSLRTYYASWYQQKPGQAPILVIYGKNNRPSGIPDRFSGSSSGNTASLTITAAQAEDEADYYCNSRDSSGKSLVFGGGTKLTVL
notes: as for B1
On to B3, for which the OD490 in test [1] came out at 3.8; in test [2], 0.1; in test [3], 3.9; in test [4], 4; in test [5], 3.8; in test [6], 3.9. Moreover, the OD490 in test [7] came out at 3.9; in test [8], 3.9; in test [9], 3.8; in [10], 4; in [11] it was 4; in test [12], 3.8. The OD490 in [13] is 3.9; in test [14] it was 3.8; in test [15] it was 3.9; in test [16], 3.8; in test [17] it was 2.2; in test [18] it was 3.9. Besides, the OD490 in test [19] was 3.9; in [20], 3.9; in [21], 3.9; in test [22] it was 3.8; in [23], 3.9; in test [24], 0.4.

B4: PD1-44B5 (antibody, V domains shown)
VH: QVQLVESGGGVVQPGRSLRLSCAASGFTFSSYAMHWVRQAPGKGLEWVAVISYDGSNKYYADSVKGRFTISRDNSKNTLYLQMNSLRAEDTAVYYCARLMHTFSVQYFLDVWGQGTTVTVSS
VL: QFVLTQSPSASGTPGQNIVISCSASTFNIGTTTVNWYQRLPGTAPKLLIYNYDQRPSGVPDRFSGSKSGTSASLAISGLQSEDEADYYCAAWDDSLNAWLFGGGTKLTVL
notes: as for B1
Regarding B4, the OD490 was determined as 3.7 in test [1]; 0.3 in test [2]; 3.8 in test [3]; 3.7 in test [4]; 3.7 in test [5]; 3.6 in test [6]. For the same molecule, the OD490 in test [7] turned out to be 3.8; in [8] it was 3.7; in test [9], 3.8; in [10], 3.8; in test [11], 3.7; in test [12] it was 3.6. Further, the OD490 in test [13] was 3.6; in [14], 3.7; in test [15], 3.7; in test [16], 3.7; in test [17] it was 3.7; in [18], 3.5. The OD490 worked out at 3.7 in [19]; 3.7 in test [20]; 3.6 in [21]; 3.7 in test [22]; 0.3 in [23]; 3.6 in [24].
